Results: article PMC5741103

Legend:
SLMAP [1] = target: SLMAP (UniProt Q14BN4); test: co-IP, FLAG-MST2 and V5-SLMAP; details: reference: wild type MST2; sites T325,T336,T378
SLMAP [2] = target: SLMAP (UniProt Q14BN4); test: co-IP, MST2 variants and V5-SLMAP

| binding against the reference (SLMAP [1]) | binding against the reference (SLMAP [2]; reference: MST2-6A/325T, sites T325) | binding against the reference (SLMAP [2]; reference: MST2-6A/336T, sites T336) | binding against the reference (SLMAP [2]; reference: MST2-6A/378T, sites T378) | Substance |
| --- | --- | --- | --- | --- |
| lost | – | – | – | MST2 (from UniProt Q13188) MST2-3A |
| – | lost | lost | lost | MST2 (from UniProt Q13188) MST2-7A |
